Assay results published in the supplement of paper PMC12764529.
± gives the half width of the 95% confidence interval.

Assays:
[1] = folding stability dG unfold from trypsin proteolysis; higher = more stable
Procedure: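 Folding stability of de novo designed mini-proteins (<80 aa, no Cys; designed by TrROS, TrMRF, ProteinMPNN and the joint model) was measured by cDNA display proteolysis with trypsin and chymotrypsin. Each protease was used at 11 concentrations in a threefold dilution series plus a no-protease condition. K50 was inferred by Bayesian fitting of sequencing counts, and dG unfold was derived against a sequence-predicted unfolded-state K50 (Tsuboyama et al. method). Sequences shown include variable-length N-terminal GS-type padding (SAGGSAGG...) inside a display construct carrying a PA tag. Rows were kept only if the AF2 dimer inter-PAE was >15, to exclude likely homo-oligomers.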

[2] = folding stability dG unfold (combined trypsin and chymotrypsin); higher = more stable
In short: (§1)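 Designed mini-proteins (under 80 residues, no cysteine) in a PA-tagged cDNA display construct were digested with trypsin and chymotrypsin. Each protease was used at 11 concentrations (threefold dilutions) plus a no-protease condition, followed by sequencing. K50 was inferred by Bayesian fitting of sequencing counts, and unfolding free energy was derived against a sequence-predicted unfolded-state K50 and a shared folded-state K50, per protease or combined. Only designs with AlphaFold2 dimer inter-PAE above 15 were kept.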

[3] = folding stability dG unfold from chymotrypsin proteolysis; higher = more stable
In short: as §1

Row | Sequence | folding stability dG unfold [1] | folding stability dG unfold [2] | folding stability dG unfold [3]
1 | EMTVTVKIEIEKTPDSIKIKITVEVNGKKIEEVEITYDKKTKKIYIKVKVKSKEDLDELKKLLEKLGFKVES [r1_455_TrROS_Hall] | 3.81 ± 0.31 kcal/mol | > 6 kcal/mol | 
2 | GKVLAVPVSYDPETGTVTVLEVKDTGTTLATLKPLPVVDISREELEKLAKGLAEENPELKELAEKLVEELAS [r1_330_TrMRF] | -0.145 ± 0.075 kcal/mol | -0.197 ± 0.35 kcal/mol | 
3 | GMVLVRVELYRPDEEELVAEVEIPFPVPESLLENLSEEEREKLREEAEKAAEKLAEELGDVEVKPEIYTDLS [r1_115_TrMRF] | 0.147 ± 0.095 kcal/mol | -0.317 ± 0.42 kcal/mol | 
4 | IKIRFPDGHEITEIDDLSFSGNGYIEINVKVRNPENPQTQPMPIYIPVPPVPPPPVKIERDPGNGKWKYEDS [r1_411_TrROS] | 0.799 ± 0.07 kcal/mol | -0.179 ± 0.33 kcal/mol | 
5 | LKITLPGGAEVTEIDDIKVSSDGYIELNVRVRNPDNDVEVPVPVYIPVPPVPPVPVKVSFIPGTGKLVVDDS [r1_411_TrMRF] | 0.0956 ± 0.11 kcal/mol | < -1 kcal/mol | 
6 | MKKTIPFPPSHPDLSPEEVAERLRERFLSPEESITVTTDPATGTTTVTATRGNVTTVATLSPAGTVTVTGAS [r1_131_JUSTAS] | -0.0831 ± 0.14 kcal/mol | < -1 kcal/mol | 
7 | SAAPTSSGPISLNKPEILTITSVEADPETGTITTPTRVELTEEELDPFNPEIPTFKKKYLDVTLTTPTSSAG [r14_888_JUSTAS] | -0.643 ± 0.45 kcal/mol | < -1 kcal/mol | 
8 | SAGDWMMVEMTVDFPPDQITEEEIKQALQEHFGEVEIDWNPGDGRIPITVYMPPGDMNKIQDALKEAGLSAG [r5_378_TrROS] | 0.755 ± 0.053 kcal/mol | 0.218 ± 0.19 kcal/mol | 
9 | SAGGALAVKVEFDEEIPTATITYRAPVPGEGGAVDVPADEVAAAIAKALGLPDLEEVTVNVPAPDAPLSAGG [r13_327_JUSTAS] | 0.197 ± 0.075 kcal/mol | -0.543 ± 0.22 kcal/mol | 
10 | SAGGAMPKTITVTDPTSSREEAEALLASPERLEAIAEEIKPEFPGVDLTVTVSSDPATGTLTITIVSSAGGS [r16_320_JUSTAS] | 0.289 ± 0.072 kcal/mol | < -1 kcal/mol | 
11 | SAGGDILLVIPAELFFDEDGKPSEEAVKAIEKAAELAEKLNKEGKPVKIEVKVVPLLPPVSPSDPYVFSAGG [r13_731_TrMRF] | 0.162 ± 0.055 kcal/mol | -0.358 ± 0.36 kcal/mol | 
12 | SAGGELREKIEEAVEEAAKAGKPVVKTSEIEARLGRPLTPELLEYVREKGIIERDPKGSITITLPEDKSAGG [r13_188_JUSTAS] | -0.895 ± 0.91 kcal/mol | < -1 kcal/mol | 
13 | SAGGEVKFEKNEDGTITVTVKAESEEEALEALKKLLEEQGFEIEEIKVERLPNGEVKITIKIKPKKPSAGGS [r8_253_TrROS_Hall] | 3.65 ± 0.4 kcal/mol |  | 
14 | SAGGFRINIPPNMPKEKLEEIQDEAEEESGMPVTINTNPDDGSLHIEFPGGPEWKQRRIQDEIRELLSAGGS [r16_227_TrROS] | -0.507 ± 0.44 kcal/mol | < -1 kcal/mol | 
15 | SAGGFRITPEFLEELLKNMPPGDPNKTITVKVEMPMRYEPRKGGNGQPQYRHEYPMTHEFPITIPPKSAGGS [r16_708_TrROS] | 0.32 ± 0.066 kcal/mol | -0.349 ± 0.19 kcal/mol | 
16 | SAGGGEVKKVTYVVVIELPPDPETGEPHPLPLVLEREYPADDPEAVESDIKKALDEIDIPEEAKEALSAGGS [r16_40_TrMRF] | 0.403 ± 0.083 kcal/mol | 0.123 ± 0.32 kcal/mol | 
17 | SAGGGMTLTQVSSHQSPNGGVPTTLVTETLFYPETGTAVVLTKVRLPETGEVTTVASTVLPIPPPLLSAGGS [r8_384_JUSTAS] | -0.0612 ± 0.066 kcal/mol | -0.726 ± 0.31 kcal/mol | 
18 | SAGGGSHTFKDNGKKIKITVYPPPNGNMRVQLQIYDPDDGKPKPKAIAPFRGGSVEDAIKDLLDAGISAGGS [r16_378_TrROS] | -0.0278 ± 0.19 kcal/mol | -0.625 ± 0.32 kcal/mol | 
19 | SAGGGSMVNISKEELAKKIAKELGKDFPTENVKVKKEIYPEPVSIYTITIKVPGTNITLNVPITLPESAGGS [r16_42_JUSTAS] | -0.043 ± 0.098 kcal/mol | -0.226 ± 0.22 kcal/mol | 
20 | SAGGGSSMVTTVIPVLRTETLFDENGNVIGPRTTVETIELEAEVPLPPRPPLVFSFVPPELRDPAVLLSAGG [r13_508_JUSTAS] | -0.299 ± 0.24 kcal/mol | < -1 kcal/mol | 
21 | SAGGGVSTSTDPNSDTTTTTVPLPNSDSTATSTHNPSTGTSTTTVPTNNTTTTYSPGGTTTATTTLPTSAGG [r13_101_JUSTAS] | 0.465 ± 0.034 kcal/mol | -0.425 ± 0.18 kcal/mol | 
22 | SAGGKPDIKDIEIDDVEYDPNEGYFRYEVEIKWPGGKERPIEVPMKYEDGRMTPEDIRKMAKKLIKNSAGGS [r16_221_TrROS] | 0.423 ± 0.15 kcal/mol | < -1 kcal/mol | 

Row | Sequence | folding stability dG unfold [1] | folding stability dG unfold [2] | folding stability dG unfold [3]
23 | SAGGKVREIDFPMDPGELRDAIDELKREGYMVMIEMPNGQERTIDPNLEDLPPGMPFEIYVMPPKDGSAGGS [r16_31_TrROS] | -0.212 ± 0.33 kcal/mol | < -1 kcal/mol | 
24 | SAGGLEAKITEIDEDGYLRIEIVDPETGELIAEIRIKIELPPPPPVPETEEVLDEDGRKRTVTRLYDRSAGG [r13_9_TrROS_Hall] | 0.214 ± 0.13 kcal/mol | -0.406 ± 0.23 kcal/mol | 
25 | SAGGMDVKVEVKEVELPEAKVTITKITTPDGSTSTITYDPETGTADVTTTTPTSTTTTTLPKSEIKPLSAGG [r13_328_JUSTAS] | 0.846 ± 0.097 kcal/mol | 0.184 ± 0.31 kcal/mol | 
26 | SAGGMGQEELENLPPEVVAGLLAEEALAEAERLGRPNEAVTVEVELGDVPLRIELTADGKIARIEAGSAGGS [r16_431_TrMRF] | -0.548 ± 0.14 kcal/mol | < -1 kcal/mol | 
27 | SAGGMPIKPKVELEPLEDAYLVRVRFEAPDRPIEIRRAFASFPDAVREAEEIARFLEEAEIPSPEGGSAGGS [r16_24_TrMRF] | -0.682 ± 0.66 kcal/mol | < -1 kcal/mol | 
28 | SAGGSAGGSAGGKAVFLKTKTVTRTVTRKTTKNGKEEEVATETVTTVELVEVDLDNGEASAGGSAGGSAGGS [r10_93_TrROS_Hall] | -0.708 ± 0.37 kcal/mol |  | 
29 | SAGGSAGGSAGGKVTVEKDKETGKYTVKIVNKKTKKEITVTVPAKDKEKALKKAKELAKSAGGSAGGSAGGS [r10_1117_TrROS_Hall] | -0.349 ± 0.35 kcal/mol |  | 
30 | SAGGSAGGSAGGMVLKTETRPGFEGGRAWTVTTTVYPDSVVVTTTPPDGVPTTTTIPPSSSAGGSAGGSAGG [r7_516_JUSTAS] | -0.221 ± 0.24 kcal/mol |  | 
31 | SAGGSAGGSAGKRKIIFQVDNPEDMLDEIKIPPGGEVKIENIEIQPQPNGRHWAVFEIKDSAGGSAGGSAGG [r11_150_TrROS] | -0.398 ± 0.4 kcal/mol |  | 
32 | SAGGSAGGSAGKTIPIDEEEAKALFKAGNPRTITRLLPDGKTETLTYQPETNEVSVLDPKAPSAGGSAGGSA [r18_400_JUSTAS] | -0.795 ± 0.61 kcal/mol |  | 
33 | SAGSMKTEEKTEEVPPVTLPFGPSVRVRRVTTTITDPSTGKIKEVTVELFDPAGRRRVDPVKKVPVELLSAG [r14_631_JUSTAS] | 0.794 ± 0.13 kcal/mol |  | 
34 | SAGVEYEVKVEYDPETGTVTAPVTFPDGPEAIVEIEFEEPGRYKMIIRIEEEEKEFEVDPDAIDEITIESAG [r5_14_TrMRF] | -0.551 ± 0.25 kcal/mol |  | 
35 | SMYVFSTGSKPSSEQLLEKLEKVPNLPKELIKKNTIISDTESSPEIVIPKEVYDKIKKENPEAVKVIESGSA [r9_160_JUSTAS] |  | < -1 kcal/mol | -0.991 ± 0.56 kcal/mol
36 | SPAPPMRIDNIKPEKEDPNGDERKYRVYWQGPNGRPYHYEGPLEELEDMLDEDNIDPDNFWPGDEITIKVSA [r9_1078_TrROS] |  | 0.421 ± 0.31 kcal/mol | 0.869 ± 0.12 kcal/mol
37 | SPVAVVTYEDGSVSEVPFTHPDGRAYDLSRGPGDVATLTVTRLLPDGSLEPLPTVPFTSEAEAEAYLAAASA [r9_942_JUSTAS] |  | -0.231 ± 0.074 kcal/mol | 0.201 ± 0.12 kcal/mol
38 | SSSSLLKSSTEEVEVSTTFTKTSPDGSLTPVGTTTEVVTKTVKTVPKEILEKLKKEKEKPLPPEGNLGYLSA [r9_1192_JUSTAS] |  | 0.000763 ± 0.41 kcal/mol | 0.495 ± 0.36 kcal/mol
39 | SSTPKLEEIERPNARFKVTTYTYPNSVKTTADATFPDGTKGKIEETYTPTPEGVKKTVKKDLPPEVKEKLES [r1_153_JUSTAS] |  | < -1 kcal/mol | 0.0664 ± 0.46 kcal/mol
40 | SSTSMSTEPNRTVTTTTEKGGRSTVTTTTTTTFTASGETTTTTPVTTTTPPPPLGVYKDPAGVTRTRPLLSA [r9_456_JUSTAS] |  | -0.012 ± 0.072 kcal/mol | 0.339 ± 0.079 kcal/mol
41 | STRTVPIPIRWDNGRLSPDDIRNAIKKALPPGENVKITEETIQNFWQEWAGKNGKPMTPEDFPIRIEVKKSA [r9_197_TrROS] |  | -0.198 ± 0.27 kcal/mol | 0.0542 ± 0.36 kcal/mol
42 | TIKELAKKLGGPITVETEQYPIENPDGNPYYITDIEVQVNPNDGSLRINYEVYNPGNGKKQEEEDTIPLDDS [r1_448_TrROS] |  | < -1 kcal/mol | -0.708 ± 0.42 kcal/mol
43 | TLSPEEIEAEARARAEAAVAARPDSAADVELDVPVEFPVRTERRDPRSDRWSRSLSTVRLRLRLRLARGAGS [r1_90_JUSTAS] |  | -0.468 ± 0.24 kcal/mol | 0.343 ± 0.2 kcal/mol
